Results taken from patent publication US20250215104A1 (WALDEN BIOSCIENCES, published 2025).
Numbering of substitutions follows the chain as printed.

B1: suPAR_DB04_D09 (scFv, V domains shown)
VH: QVQLVQSGAEVKKPGASVKVSCKASGYTFTAYYMHWVRQAPGQGLEWMGWIDHENGNTIYDQKFQGRVTMTRDTSTSTVYMELSSLRSEDTAVYYCARGYDVDWFVYWGQGTLVTVSS
VL: DIQMTQSPSSLSASVGDRVTITCSARSSVSYMYWYQQKPGKAPKLLIYRTSNLASGVPSRFSGSGSGTDFTLTISSLQPEDFATYYCQQYHSYPPTFGGGTKVEIK
notes: scFv clone from phage display
B2: suPAR_DB04_C12 (scFv, V domains shown)
VH: B1 VH with Y27H, F29I, A31S, N57S, D61A
VL: B1 VL with S24R, R26S
notes: scFv clone from phage display
B3: suPAR_DB04_E03 (scFv, V domains shown)
VH: B1 VH with A31N, N55G, N57S, D61A
VL: B1 VL
notes: scFv clone from phage display
B4: suPAR_DB04_C02 (scFv, V domains shown)
VH: B1 VH with Y27N, T30I, A31G, M34V, I59S, Y100N
VL: B1 VL
notes: scFv clone from phage display
B5: suPAR_DB04_E04 (scFv, V domains shown)
VH: B1 VH with A31S, M34V, Y100T
VL: B1 VL with S24R, S27Q
notes: scFv clone from phage display
B6: suPAR_DB04_D03 (scFv, V domains shown)
VH: B1 VH with A31S, H53P, N57S
VL: B1 VL with S24R, S27Q
notes: scFv clone from phage display
B7: suPAR_DB04_C04 (scFv, V domains shown)
VH: B1 VH with A31G, I59S
VL: B1 VL with R26S, S27Q
notes: scFv clone from phage display
B8: suPAR_DB04_C11 (scFv, V domains shown)
VH: B1 VH with T28S, A31D, H53P, N57S
VL: B1 VL
notes: scFv clone from phage display
B9: suPAR_DB04_D07 (scFv, V domains shown)
VH: B1 VH with T30G, A31S
VL: B1 VL with S24R, S27Q
notes: scFv clone from phage display
B10: suPAR_DB04_D08 (scFv, V domains shown)
VH: QVQLVQSGAEVKKPGASVKVSCKASGYTLSGYYMHWVRQAPGQGLEWMGWIDPNSGATNDAPKFQGRVTMTRDTSTSTVYMELSSLRSEDTAVYYCARGYDVDWFVYWGQGTLVTVSS
VL: B1 VL
notes: scFv clone from phage display
B11: suPAR_DB04_E07 (scFv, V domains shown)
VH: B1 VH with Y27D, A31S, M34I
VL: B1 VL
notes: scFv clone from phage display
B12: suPAR_DB04_C09 (scFv, V domains shown)
VH: B1 VH with T30S, A31T, H35Q, H53P, N57S
VL: B1 VL with T50A
notes: scFv clone from phage display
B13: suPAR_DB04_C06 (scFv, V domains shown)
VH: B1 VH with T30S, M34I, Y100N
VL: B1 VL with S27Q, A54Q
notes: scFv clone from phage display
B14: suPAR_DB04_E08 (scFv, V domains shown)
VH: B1 VH with A31G, I59S, D61A
VL: B1 VL
notes: scFv clone from phage display
B15: suPAR_DB04_E06 (scFv, V domains shown)
VH: B1 VH with T28S, A31S, Y32H
VL: B1 VL with S24R
notes: scFv clone from phage display
B16: suPAR_DB04_C03 (scFv, V domains shown)
VH: B1 VH with A31S, H53P, N57S, R98S
VL: B1 VL
notes: scFv clone from phage display
B17: suPAR_DB04_D05 (scFv, V domains shown)
VH: B1 VH with A31T, M48V, H53P, E54H, N55S, N57G, I59N, D61A
VL: B1 VL
notes: scFv clone from phage display
B18: suPAR_DB04_C07 (scFv, V domains shown)
VH: B1 VH with A31S, E54S, Y100D
VL: B1 VL
notes: scFv clone from phage display
B19: suPAR_DB04_D10 (scFv, V domains shown)
VH: B1 VH with A31S, H53P, N55G, I59S, R98T
VL: B1 VL
notes: scFv clone from phage display
B20: suPAR_DB04_C05 (scFv, V domains shown)
VH: B1 VH with Y27H, F29L, T30N, A31S
VL: B1 VL
notes: scFv clone from phage display
B21: suPAR_DB04_D04 (scFv, V domains shown)
VH: B1 VH with F29I, T30K, A31D, N57S, D61A
VL: B1 VL
notes: scFv clone from phage display
B22: suPAR_DB03_D12 (scFv, V domains shown)
VH: B1 VH with T30S, A31N, H53P, D61A
VL: B1 VL with S24R, A54Q
notes: screened as scFv
B23: suPAR_DB03_E09 (scFv, V domains shown)
VH: B10 VH with Y27F, T28N, L29I, S30K, G31D, M34I, A57G, D60Y, P62Q
VL: B1 VL with S24R, S27Q
notes: screened as scFv
B24: suPAR_DB03_E08 (scFv, V domains shown)
VH: B1 VH with A31H, H53P, N55G, N57S
VL: B1 VL with S24R, R26S
notes: screened as scFv
B25: suPAR_DB03_E06 (scFv, V domains shown)
VH: B1 VH with A31G, Y32Q, M34V
VL: B1 VL
notes: screened as scFv
B26: suPAR_DB03_E04 (scFv, V domains shown)
VH: B1 VH with A31G, Y32H, H53P, N57S
VL: B1 VL
notes: screened as scFv
B27: suPAR_DB03_E02 (scFv, V domains shown)
VH: B1 VH with T28N, A31G, M34I, D61A
VL: B1 VL
notes: screened as scFv
B28: suPAR_DB03_E03 (scFv, V domains shown)
VH: B1 VH with F29V, A31N
VL: B1 VL with S24R
notes: screened as scFv

The binders below were run against T1, human soluble urokinase plasminogen activator receptor (hsuPAR) (human, UniProt Q03405 23-303, limits assumed) (assay: off-rate screen of scFv clones (kdis), Octet BLI).
T1 construct: also called human suPAR; rhuPAR-His
T1 sequence (Q03405 23-303 limits assumed): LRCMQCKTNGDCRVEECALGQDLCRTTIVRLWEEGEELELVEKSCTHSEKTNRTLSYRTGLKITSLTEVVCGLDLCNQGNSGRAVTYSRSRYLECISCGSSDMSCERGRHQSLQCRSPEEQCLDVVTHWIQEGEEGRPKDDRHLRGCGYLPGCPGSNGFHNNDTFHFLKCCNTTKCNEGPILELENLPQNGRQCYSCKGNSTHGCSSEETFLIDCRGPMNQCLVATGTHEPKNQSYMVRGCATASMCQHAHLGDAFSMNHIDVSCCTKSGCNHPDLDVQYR

| Binder | koff [s⁻¹] |
| --- | --- |
| B1 | 0.00203 |
| B2 | 0.000626 |
| B3 | 0.00116 |
| B4 | 0.00411 |
| B5 | 0.00335 |
| B6 | 0.00408 |
| B7 | 0.00229 |
| B8 | 0.00562 |
| B9 | 0.00217 |
| B10 | 0.00414 |
| B11 | 0.00311 |
| B12 | 0.0013 |
| B13 | 0.00412 |
| B14 | 0.00268 |
| B15 | 0.00564 |
| B16 | 0.00368 |
| B17 | 0.004 |
| B18 | 0.0031 |
| B19 | 0.005 |
| B20 | 0.00245 |
| B21 | 0.00188 |

These binders were tested against T2, cynomolgus soluble urokinase plasminogen activator receptor (cynomolgus suPAR) (cynomolgus, UniProt Q9GK78 23-303, limits assumed) (assay: off-rate screen of scFv clones (kdis), Octet BLI).
T2 construct: also called cynomolgus uPAR; cynoPLAUR-His
T2 sequence (Q9GK78 23-303 limits assumed): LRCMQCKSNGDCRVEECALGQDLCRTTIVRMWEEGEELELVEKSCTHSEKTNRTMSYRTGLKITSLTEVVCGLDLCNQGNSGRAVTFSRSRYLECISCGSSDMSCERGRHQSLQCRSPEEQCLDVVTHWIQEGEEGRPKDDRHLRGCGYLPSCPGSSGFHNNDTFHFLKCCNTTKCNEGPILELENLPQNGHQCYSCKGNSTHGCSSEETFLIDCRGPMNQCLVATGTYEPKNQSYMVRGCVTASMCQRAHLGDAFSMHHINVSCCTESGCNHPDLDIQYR

| Binder | koff [s⁻¹] |
| --- | --- |
| B1 | 0.000206 |
| B2 | 0.000255 |
| B3 | 0.000224 |
| B4 | 0.000146 |
| B5 | 0.000451 |
| B6 | 0.000353 |
| B7 | 0.000384 |
| B8 | 0.000483 |
| B9 | 0.000436 |
| B10 | 0.000343 |
| B11 | 0.00023 |
| B12 | 0.00154 |
| B13 | 4.14e-05 |
| B14 | 0.000149 |
| B15 | 0.000137 |
| B16 | 0.000158 |
| B17 | 5.44e-05 |
| B18 | 0.000249 |
| B19 | 0.000402 |
| B20 | 0.000421 |
| B21 | 0.000184 |

Each binder was assayed against T3, cynomolgus suPAR (cynomolgus, UniProt Q9GK78 23-303, limits assumed) (assay: BLI (Octet) off-rate screen of scFv clones).
T3 construct: Target antigen of the off-rate screen; also called cynomolgus uPAR; cynoPLAUR-His
T3 sequence (Q9GK78 23-303 limits assumed): as above

| Binder | koff [s⁻¹] |
| --- | --- |
| B22 | 0.000263 |
| B23 | 0.000132 |
| B24 | 0.00025 |
| B25 | 7.36e-05 |
| B26 | 0.000669 |
| B27 | 0.000258 |
| B28 | 0.000132 |

What follows are binders tested against T4, human soluble urokinase plasminogen activator receptor (hsuPAR) (human, UniProt Q03405 23-303, limits assumed) (assay: BLI (Octet) off-rate screen of scFv clones).
T4 construct: Target antigen of the off-rate screen; also called human suPAR; rhuPAR-His
T4 sequence (Q03405 23-303 limits assumed): as the sequence (Q03405 23-303 limits assumed) above

| Binder | koff [s⁻¹] |
| --- | --- |
| B22 | 0.0057 |
| B23 | 0.00426 |
| B24 | 0.005 |
| B25 | 0.0044 |
| B26 | 0.00556 |
| B27 | 0.00358 |
| B28 | 0.00231 |
